± gives the standard deviation of the averaged measurements.
Experiment: total protein half-life in vivo (active degradation + dilution); higher = more stable protein
[1] = E. coli NCM3722 delta-clpP delta-lon delta-hslV, growth: N-lim chemostat, doubling time 6 h
[2] = E. coli NCM3722 delta-clpP, growth: N-lim chemostat, doubling time 6 h
[3] = E. coli NCM3722 delta-hslV, growth: N-lim chemostat, doubling time 6 h
[4] = E. coli NCM3722 delta-lon, growth: N-lim chemostat, doubling time 6 h
[5] = E. coli NCM3722 delta-smpB, growth: N-lim chemostat, doubling time 6 h
[6] = wild type E. coli NCM3722, growth: C-lim chemostat, doubling time 3 h
[7] = wild type E. coli NCM3722, growth: C-lim chemostat, doubling time 6 h
[8] = wild type E. coli NCM3722, growth: C-lim chemostat, doubling time 12 h
[9] = wild type E. coli NCM3722, growth: N-lim chemostat, doubling time 6 h
[10] = wild type E. coli NCM3722, growth: N-lim chemostat, doubling time 12 h
[11] = wild type E. coli NCM3722, growth: P-lim chemostat, doubling time 6 h
[12] = wild type E. coli NCM3722, growth: P-lim chemostat, doubling time 12 h

## MNELDGIKQFTTVVADSGDIESIRHYHPQDATTNPSLLLKAAGLSQYEHLIDDAIAWGKKNGKTQEQQVVAACDKLAVNFGAEILKIVPGRVSTEVDARLSFDKEKSIEKARHLVDLYQQQGVEKSRILIKLASTWEGIRAAEELEKEGINCNLTLLFSFAQARACAEAGVFLISPFVGRIYDWYQARKPMDPYVVEEDPGVKSVRNIYDYYKQHHYETIVMGASFRRTEQILALTGCDRLTIAPNLLKELQEKVSPVVRKLIPPSQTFPRPAPMSEAEFRWEHNQDAMAVEKLSEGIRLFAVDQRKLEDLLAAKL [P0A867]
[1]
  total protein half-life in vivo: 5.487 ± 0.013 h
[2]
  total protein half-life in vivo: 5.51 ± 0.43 h
[3]
  total protein half-life in vivo: 5.35 ± 0.25 h
[4]
  total protein half-life in vivo: 5.76 ± 0.63 h
[5]
  total protein half-life in vivo: 5.19 ± 0.4 h
[6]
  total protein half-life in vivo: 3.12 ± 0.12 h
[7]
  total protein half-life in vivo: 5.95 ± 0.33 h
[8]
  total protein half-life in vivo: 11.7 ± 0.016 h
[9]
  total protein half-life in vivo: 5.19 ± 0.21 h
[10]
  total protein half-life in vivo: 9.85 ± 1.3 h
[11]
  total protein half-life in vivo: 5.9 ± 0.16 h
[12]
  total protein half-life in vivo: 12.8 ± 0.16 h

## MNEVVNSGVMNIASLVVSVVVLLIGLILWFFINRASSRTNEQIELLEALLDQQKRQNALLRRLCEANEPEKADKKTVESQKSVEDEDIIRLVAER
[1]
  total protein half-life in vivo: 3.97 ± 0.73 h
[2]
  total protein half-life in vivo: 6.38 h
[4]
  total protein half-life in vivo: 1.45 h
[5]
  total protein half-life in vivo: 1.31 h
[6]
  total protein half-life in vivo: 2.6 h
[9]
  total protein half-life in vivo: 1.78 h
[11]
  total protein half-life in vivo: 2.17 h
[12]
  total protein half-life in vivo: 3.4 ± 1.1 h

## MNFQQLKIIREAARQDYNLTEVANMLFTSQSGVSRHIRELEDELGIEIFVRRGKRLLGMTEPGKALLVIAERILNEASNVRRLADLFTNDTSGVLTIATTHTQARYSLPEVIKAFRELFPEVRLELIQGTPQEIATLLQNGEADIGIASERLSNDPQLVAFPWFRWHHSLLVPHDHPLTQISPLTLESIAKWPLITYRQGITGRSRIDDAFARKGLLADIVLSAQDSDVIKTYVALGLGIGLVAEQSSGEQEEENLIRLDTRHLFDANTVWLGLKRGQLQRNYVWRFLELCNAGLSVEDIKRQVMESSEEEIDYQI
[1]
  total protein half-life in vivo: 6.2 ± 1.1 h
[2]
  total protein half-life in vivo: 2.47 ± 0.054 h
[3]
  total protein half-life in vivo: 0.454 h
[4]
  total protein half-life in vivo: 0.652 h
[5]
  total protein half-life in vivo: 0.654 h
[6]
  total protein half-life in vivo: 1.18 ± 0.11 h
[7]
  total protein half-life in vivo: 1.156 ± 0.01 h
[8]
  total protein half-life in vivo: 1.86 h
[9]
  total protein half-life in vivo: 1.04 ± 0.049 h
[10]
  total protein half-life in vivo: 1.02 h
[11]
  total protein half-life in vivo: 2.33 ± 0.71 h
[12]
  total protein half-life in vivo: 4.48 ± 0.47 h

## MNGELIWVLSLLAVAIVLFATGRVRMDAVALFVIVAFALSGTLTVPEVFSGFSDPNVVLIAALFIIGDGLVRTGVATVMGTWLVKVAGNSEIKMLVLLMLTVAGLGAFMSSTGVVAIFIPVVLSVAMRMQTSPSRLMMPLSFAGLISGMMTLVATPPNLVVNSELLREGYHGFSFFSVTPIGLVVLVLGILYMLVMRFMLKGDTQTPQREGWTRRTFRDLIREYRLTGRARRLAIRPGSPMIGQRLDDLKLRERYGANVIGVERWRRFRRVIVNVNGVSEFRARDVLLIDMSAADVDLRQFCSEQLLEPMVLRGEYFSDQALDVGMAEISLIPESELIGKSVREIGFRTRYGLNVVGLKRNGVALEGSLADEPLLLGDIILVVGNWKLIGMLAKQGRDFVALNLPEEVSEASPAHSQAPHAIFCLVLMVALMLTDEIPNPVAAIIACLLMGKFRCIDAESAYKSIHWPSIILIVGMMPFAVALQKTGGVALAVKGLMDIGGGYGPHMMLGCLFVLSAVIGLFISNTATAVLMAPIALAAAKTMGVSPYPFAMVVAMAASAAFMTPVSSPVNTLVLGPGNYSFSDFVKLGVPFTIIVMAVCVVMIPMLFPF [P0AFU2]
[3]
  total protein half-life in vivo: 6.68 ± 0.32 h
[4]
  total protein half-life in vivo: 6.39 ± 0.64 h
[5]
  total protein half-life in vivo: 6.29 ± 0.45 h
[6]
  total protein half-life in vivo: > 4 h
[7]
  total protein half-life in vivo: 5.46 h
[9]
  total protein half-life in vivo: 5.65 ± 1.7 h
[10]
  total protein half-life in vivo: 12.4 ± 3.2 h
[11]
  total protein half-life in vivo: > 8 h
[12]
  total protein half-life in vivo: 12.8 ± 1.7 h

## MNGLLRIRQRYQGLAQSDKKLADYLLLQPDTARHLSSQQLANEAGVSQSSVVKFAQKLGYKGFPALKLALSEALASQPESPSVPIHNQIRGDDPLRLVGEKLIKENTAAMYATLNVNSEEKLHECVTMLRSARRIILTGIGASGLVAQNFAWKLMKIGFNAAAVRDMHALLATVQASSPDDLLLAISYTGVRRELNLAADEMLRVGGKVLAITGFTPNALQQRASHCLYTIAEEQATNSASISACHAQGMLTDLLFIALIQQDLELAPERIRHSEALVKKLV
[1]
  total protein half-life in vivo: 5.79 ± 0.53 h
[2]
  total protein half-life in vivo: 4.3186 ± 0.00083 h
[3]
  total protein half-life in vivo: 2.83 ± 0.031 h
[4]
  total protein half-life in vivo: 3.72 ± 0.33 h
[5]
  total protein half-life in vivo: 3.5 ± 0.69 h
[6]
  total protein half-life in vivo: 2.44 ± 0.087 h
[7]
  total protein half-life in vivo: 4.31 ± 0.2 h
[8]
  total protein half-life in vivo: 5.65 ± 1.1 h
[9]
  total protein half-life in vivo: 2.8 ± 0.11 h
[10]
  total protein half-life in vivo: 4.19 ± 0.29 h
[11]
  total protein half-life in vivo: 3.73 ± 0.18 h
[12]
  total protein half-life in vivo: 7.58 ± 1.8 h

## MNIELLQQLCEASAVSGDEQEVRDILINTLEPCVNEITFDGLGSFVARKGNKGPKVAVVGHMDEVGFMVTHIDESGFLRFTTIGGWWNQSMLNHRVTIRTHKGVKIPGVIGSVAPHALTEKQKQQPLSFDEMFIDIGANSREEVEKRGVEIGNFISPEANFACWGEDKVVGKALDNRIGCAMMAELLQTVNNPEITLYGVGSVEEEVGLRGAQTSAEHIKPDVVIVLDTAVAGDVPGIDNIKYPLKLGQGPGLMLFDKRYFPNQKLVAALKSCAAHNDLPLQFSTMKTGATDGGRYNVMGGGRPVVALCLPTRYLHANSGMISKADYEALLTLIRGFLTTLTAEKVNAFSQFRQVD
[4]
  total protein half-life in vivo: 3.4 h
[5]
  total protein half-life in vivo: 3.85 ± 0.0073 h
[6]
  total protein half-life in vivo: 2.53 h
[9]
  total protein half-life in vivo: 3.72 h
[11]
  total protein half-life in vivo: 4.06 h
[12]
  total protein half-life in vivo: 9.711 ± 0.074 h

## MNIFDHYRQRYEAAKDEEFTLQEFLTTCRQDRSAYANAAERLLMAIGEPVMVDTAQEPRLSRLFSNRVIARYPAFEEFYGMEDAIEQIVSYLKHAAQGLEEKKQILYLLGPVGGGKSSLAERLKSLMQLVPIYVLSANGERSPVNDHPFCLFNPQEDAQILEKEYGIPRRYLGTIMSPWAAKRLHEFGGDITKFRVVKVWPSILQQIAIAKTEPGDENNQDISALVGKVDIRKLEHYAQNDPDAYGYSGALCRANQGIMEFVEMFKAPIKVLHPLLTATQEGNYNGTEGISALPFNGIILAHSNESEWVTFRNNKNNEAFLDRVYIVKVPYCLRISEEIKIYEKLLNHSELTHAPCAPGTLETLSRFSILSRLKEPENSSIYSKMRVYDGESLKDTDPKAKSYQEYRDYAGVDEGMNGLSTRFAFKILSRVFNFDHVEVAANPVHLFYVLEQQIEREQFPQEQAERYLEFLKGYLIPKYAEFIGKEIQTAYLESYSEYGQNIFDRYVTYADFWIQDQEYRDPDTGQLFDRESLNAELEKIEKPAGISNPKDFRNEIVNFVLRARANNSGRNPNWTSYEKLRTVIEKKMFSNTEELLPVISFNAKTSTDEQKKHDDFVDRMMEKGYTRKQVRLLCEWYLRVRKSS [P0ACY3]
[1]
  total protein half-life in vivo: 3.5 ± 0.94 h
[2]
  total protein half-life in vivo: 2.691 ± 0.0021 h
[3]
  total protein half-life in vivo: 2.49 ± 0.037 h
[4]
  total protein half-life in vivo: 2.38 ± 0.24 h
[5]
  total protein half-life in vivo: 2.24 ± 0.06 h
[6]
  total protein half-life in vivo: 2.76 ± 0.21 h
[7]
  total protein half-life in vivo: 3.41 ± 0.25 h
[8]
  total protein half-life in vivo: 4.77 ± 0.46 h
[9]
  total protein half-life in vivo: 2.48 ± 0.11 h
[10]
  total protein half-life in vivo: 3.09 ± 0.1 h
[11]
  total protein half-life in vivo: 4.703 ± 0.016 h
[12]
  total protein half-life in vivo: 7.66 ± 0.77 h
